The assay has as its target T1, C末端FLAGタグを有する切り捨てられたヒトRNF43 (Ba/F3 E12細胞に発現) (human, UniProt Q68DV7 24-237).
T1 construct: also called E12細胞株; Ba/F3 E12トランスフェクタント
T1 sequence: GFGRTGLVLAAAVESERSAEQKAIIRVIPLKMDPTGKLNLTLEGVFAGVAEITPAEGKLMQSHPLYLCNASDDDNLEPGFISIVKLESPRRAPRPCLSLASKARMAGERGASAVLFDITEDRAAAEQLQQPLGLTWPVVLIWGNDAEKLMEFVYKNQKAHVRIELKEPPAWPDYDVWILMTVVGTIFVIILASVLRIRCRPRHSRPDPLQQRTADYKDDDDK
The assay is described as follows: flow cytometry on Ba/F3 E12 cells, antibody at 2.5 microg/ml, PE anti-human IgG detection.

B1: 抗RNF43単一特異性抗体RNN0802 (antibody, human IgG1, kappa, N297A, V domains shown)
VH: QSLEESGGRLVTPGGSLTLTCRVSGFSLSNYDMSWVRQAPGKGLEWIGFITSSGRTYYASWAKGRFTISKTSTMVDLKITSPTTEDTATYFCARDFENDDSAMWGPGTLVTVSS
VL: DVVMTQTPSSVSAAVGGTVTINCQASQSVYDNNLAWYQQKPGQPPKLLIYKASKLASGVPSRFKGSGSGTEFTLTISDLECADAATYYCQSNYYSNTNGLGSFGGGTKVEIKR
notes: also called 単一特異的RNN0802; 単一特異的RNN0802(二価IgG)
B1: the binding result is listed as “binds”.

For the origin of these results see patent publication JP2020075879A (dated 2020).
